Assay results as given in the Immune Epitope Database (IEDB).
Blank lines part the entries; values can stand above or below the sequence they belong to.

Experiments:
[1] = target: HLA-B*15:01; assay: IEDB peptide-MHC binding, purified MHC/direct/fluorescence; filed as Kd, often an IC50 or EC50 that approximates it; ≥ and ≤ were set here for values at or beyond the usual limits of such assays
[2] = target: HLA-A*02:12; assay: as above; details: source organism: Yersinia pestis CA88-4125
[3] = target: HLA-B*44:02; assay: as above; details: source organism: Yersinia pestis
[4] = target: HLA-A*02:01; assay: as above
[5] = target: HLA-A*01:01; assay: as above
[6] = target: HLA-A*02:11; assay: as above; details: source organism: Yersinia pestis CA88-4125
[7] = target: HLA-B*58:01; assay: as above
[8] = target: HLA-A*31:01; assay: as above
[9] = target: HLA-A*02:06; assay: as above; details: source organism: Yersinia pestis CA88-4125
[10] = target: HLA-B*40:01; assay: as above
[11] = target: HLA-B*07:02; assay: as above
[12] = target: HLA-B*46:01; assay: as above
[13] = target: HLA-A*69:01; assay: as above
[14] = target: HLA-A*24:02; assay: as above; details: source organism: Yersinia pestis
[15] = target: HLA-A*02:19; assay: as above; details: source organism: Yersinia pestis CA88-4125
[16] = target: HLA-B*18:01; assay: as above
[17] = target: HLA-B*27:05; assay: as above
[18] = target: HLA-A*11:01; assay: as above
[19] = target: HLA-A*03:01; assay: as above
[20] = target: HLA-A*02:16; assay: as above; details: source organism: Yersinia pestis CA88-4125
[21] = target: HLA-A*02:50; assay: IEDB peptide-MHC binding, purified MHC/competitive/fluorescence; filed as Kd, often an IC50 or EC50 that approximates it; ≥ and ≤ were set here for values at or beyond the usual limits of such assays; details: source organism: Yersinia pestis Nepal516
[22] = target: HLA-B*08:03; assay: IEDB peptide-MHC binding, purified MHC/direct/fluorescence; filed as Kd, often an IC50 or EC50 that approximates it; ≥ and ≤ were set here for values at or beyond the usual limits of such assays; details: source organism: Listeria monocytogenes serotype 4b str. H7858
[23] = target: HLA-A*68:02; assay: as above; details: source organism: Listeria monocytogenes
[24] = target: HLA-B*57:01; assay: as above; details: source organism: Listeria monocytogenes
[25] = target: HLA-B*48:01; assay: as above; details: source organism: Listeria monocytogenes
[26] = target: HLA-B*15:17; assay: IEDB peptide-MHC binding, purified MHC/competitive/fluorescence; filed as Kd, often an IC50 or EC50 that approximates it; ≥ and ≤ were set here for values at or beyond the usual limits of such assays; details: source organism: Listeria monocytogenes serotype 4b str. CLIP 80459
[27] = target: HLA-B*35:01; assay: IEDB peptide-MHC binding, purified MHC/direct/fluorescence; filed as Kd, often an IC50 or EC50 that approximates it; ≥ and ≤ were set here for values at or beyond the usual limits of such assays; details: source organism: Pseudomonas fluorescens
[28] = target: HLA-B*08:01; assay: as above; details: source organism: Pseudomonas fluorescens
[29] = target: HLA-B*15:02; assay: IEDB peptide-MHC binding, purified MHC/competitive/fluorescence; filed as Kd, often an IC50 or EC50 that approximates it; ≥ and ≤ were set here for values at or beyond the usual limits of such assays; details: source organism: Pseudomonas fluorescens
[30] = source organism: Yersinia pestis
[31] = source organism: Listeria monocytogenes
[32] = source organism: Pseudomonas fluorescens

Sequence: AMQDPNPEV
Kd [1, 30]: 319 nM | Kd [2]: 6 nM | Kd [3]: ≥ 20 µM | Kd [4, 30]: 0.189 µM | Kd [5, 30]: ≥ 20 µM | Kd [6]: 5 nM | Kd [7, 30]: ≥ 20 µM | Kd [8, 30]: ≥ 20 µM | Kd [9]: 40 nM | Kd [10, 30]: ≥ 20 µM | Kd [11, 30]: ≥ 20 µM | Kd [12, 30]: ≥ 20 µM | Kd [13, 30]: 5.29 µM | Kd [14]: ≥ 20 µM | Kd [15]: 42 nM | Kd [16, 30]: ≥ 20 µM | Kd [17, 30]: ≥ 20 µM | Kd [18, 30]: ≥ 20 µM | Kd [19, 30]: ≥ 20 µM | Kd [20]: ≤ 1 nM | Kd [21]: 1.1 nM

Sequence: EIEIEKNKK
Kd [22]: ≥ 20 µM | Kd [1, 31]: ≥ 20000 nM | Kd [23]: ≥ 20 µM | Kd [4, 31]: ≥ 20 µM | Kd [5, 31]: ≥ 20 µM | Kd [24]: ≥ 20 µM | Kd [7, 31]: ≥ 20 µM | Kd [8, 31]: ≥ 20 µM | Kd [10, 31]: ≥ 20 µM | Kd [11, 31]: ≥ 20 µM | Kd [25]: ≥ 20 µM | Kd [12, 31]: ≥ 20 µM | Kd [16, 31]: ≥ 20 µM | Kd [17, 31]: ≥ 20 µM | Kd [18, 31]: ≥ 20 µM | Kd [19, 31]: ≥ 20 µM | Kd [26]: ≥ 20 µM

Kd [1, 32]: 250 nM | Kd [4, 32]: ≥ 20 µM | Kd [5, 32]: 0.135 µM | Kd [7, 32]: ≥ 20 µM | Kd [8, 32]: ≥ 20 µM | Kd [10, 32]: ≥ 20 µM | Kd [11, 32]: ≥ 20 µM | Kd [13, 32]: ≥ 20 µM | Kd [27]: 65.4 nM | Kd [28]: ≥ 20 µM | Kd [17, 32]: ≥ 20 µM | Kd [18, 32]: ≥ 20 µM | Kd [19, 32]: ≥ 20 µM | Kd [29]: 40 nM
Sequence: FVSVYFSDY
